# Assay results taken from patent publication US20230065493A1.
# Molecular target: CPTL derived from para rubber tree (Hevea brasiliensis) (Hevea brasiliensis)
row,"Radioactivity (isoprene polymerization activity, 14C-IPP incorporation, proteoliposome) [dpm]",Substance
1,290,CPT1 derived from para rubber tree (Hevea brasiliensis) (enzyme)
2,7660,cis-prenyltransferase (CPT) 6 derived from para rubber tree (Hevea brasiliensis) (enzyme)
3,5040,cis-prenyltransferase (CPT) 7 derived from para rubber tree (Hevea brasiliensis) (enzyme)
